Data set [1] addresses E. coli TrmH (without a tag sequence) (Escherichia coli, UniProt P0AGJ2). Description: radiometric filter assay, methyl transfer to tRNA transcript. The class given is biochemical. As to conditions: methyl donor; 200 μM SAM, tRNA^SerCGA transcript, pH 7.6, 37 °C; labelled compound.
The target of data set [2] is T1, TrmH (tRNA Gm18 methyltransferase) (Thermus thermophilus, UniProt Q5SM16 1-194).
T1 sequence: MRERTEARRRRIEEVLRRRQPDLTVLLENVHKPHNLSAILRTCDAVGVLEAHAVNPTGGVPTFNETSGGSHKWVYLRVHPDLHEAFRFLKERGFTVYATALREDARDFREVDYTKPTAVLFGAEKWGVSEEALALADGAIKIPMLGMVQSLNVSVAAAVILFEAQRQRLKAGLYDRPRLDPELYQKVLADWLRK
In words: EMSA; 5 mM Mg-acetate, 400 mM KCl; no SAM listed; tRNA 4.25 uM; 50 mM Tris-HCl pH 7.6, 5 mM Mg-acetate, 6 mM 2-mercaptoethanol, 400 mM KCl, 5% glycerol; room temperature 30 min; 4.25 uM tRNA, 0-17 uM TrmH; 6% native PAGE. Particulars: protein: recombinant; chain copies: 2; label: none; tRNA cloverleaf, long variable region.

The target of data set [3] is T2, TrmH (tRNA Gm18 methyltransferase) (Escherichia coli HB101 (gene source), UniProt P0AGJ2 1-229).
T2 sequence: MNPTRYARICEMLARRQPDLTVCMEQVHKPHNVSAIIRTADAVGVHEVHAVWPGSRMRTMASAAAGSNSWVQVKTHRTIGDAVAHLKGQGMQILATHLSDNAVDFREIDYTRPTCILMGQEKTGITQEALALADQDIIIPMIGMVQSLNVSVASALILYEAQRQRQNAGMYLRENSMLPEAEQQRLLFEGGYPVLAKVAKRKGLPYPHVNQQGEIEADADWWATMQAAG
In words: EMSA; 5 mM Mg-acetate, 400 mM KCl; no SAM listed; tRNA 4.25 uM, complex at enzyme below 10 uM; slightly weaker than T. thermophilus TrmH; 50 mM Tris-HCl pH 7.6, 5 mM Mg-acetate, 6 mM 2-mercaptoethanol, 400 mM KCl, 5% glycerol; room temperature 30 min; 4.25 uM tRNA, 0-17 uM TrmH; 6% native PAGE. Particulars: protein: recombinant; tags: none (pET30a, untagged); chain copies: 2; label: none; tRNA cloverleaf, long variable region.

Data set [4] deals with the molecule itself. In words: crystal structure; E107G TrmH co-crystallised with 2 mM SAM; hanging-drop vapor diffusion, 20°C, 100 mM HEPES-NaOH (pH 7.6), 5% MPD, 10% PEG 6000; space group C2, one E107G-SAM molecule per asymmetric unit; dimer.

These results are taken from publication PMC11640301, “Escherichia coli tRNA (Gm18) methyltransferase (TrmH) requires the correct localization of its methylation site (G18) in the D-loop for efficient methylation” (Journal of Biochemistry, 2023).

Substitutions are numbered along the chain they refer to. In names and notes the source's numbering stands.

For the molecule `C[S+](CC[C@H](N)C(=O)O)C[C@H]1O[C@@H](n2cnc3c(N)ncnc32)[C@H](O)[C@@H]1O` (stereo partly drawn) [S-adenosyl-L-methionine], the “radiometric filter assay, methyl transfer to tRNA transcript” value in data set [1] was “incorporation of the methyl group from [methyl-^3H]-SAM into E. coli tRNA^SerCGA transcript was monitored”.

B1: tRNASerCGA transcript (structured_RNA)
RNA: GGAGAGAUGCCGGAGCGGCUGAACGGACCGGUCUCGAAAACCGGAGUAGGGGCAACUCUACCGGGGGUUCAAAUCCCCCUCUCUCCGCCA
modifications: none (unmodified transcript)
Turning to B1, the binding result in data set [2] and in data set [3] was “binds” in each case.

B2: E. coli TrmH (E107G) mutant, tRNA (Gm18) methyltransferase, with 6x His tag (enzyme, UniProt P0AGJ2 1-229, looked up)
chain: T2 sequence with E107G
notes: TrmH, tRNA (Gm18) 2'-O-methyltransferase of Escherichia coli; trmH gene amplified from E. coli HB101 genomic DNA with primers from the start codon to the stop codon; Glu107 replaced with Gly; No removal of the His tag is described; One molecule per asymmetric unit, so the dimer is formed by crystal symmetry; also called E107G mutant TrmH; E107G-SAM; source: E. coli BL21 (DE3) Rosetta 2, …
B2: the “stoichiometry N” value in data set [4] is 2.
